Measured values from US20220389118A1 (Chugai, published 2022).
Positions count from the first letter of the chain named.

B1: IL6R-BP102/IL6R-L (antibody, human IgG1, kappa)
heavy: QVQLQESGPGLVKPSETLSLTCAVSGHSISHDHAWSWVRQPPGEGLEWIGFISYSGITNYNPSLQGRVTISRDNSKNTLYLQMNSLRAEDTAVYYCARSLARTTAMDYWGEGTLVTVSSASTKGPSVFPLAPSSKSTSGGTAALGCLVKDYFPEPVTVSWNSGALTSGVHTFPAVLQSSGLYSLSSVVTVPSSSLGTQTYICNVNHKPSNTKVDKKVEPKSCDKTHTCPPCPAPELLGGDSVFLFPPKPKDTLMISRTPEVTCVVVDVQHEDPEVKFNWYVDGVEVHNAKTKPREEQYNSTYRVVSVLTVLHQDWLNGKEYKCKVSNKALPAPIEKTISKAKGQPREPQVYTLPPSRDELTKNQVSLTCLVKGFYPSDIAVEWESNGQPENNYKTTPPVLDSDGSFFLYSKLTVDKSRWQQGNVFSCSVMHEALHNHYTQESLSLSP
light: not shown
notes: IgG1 type
B2: IL6R-BP100/IL6R-L (antibody, human IgG1, kappa)
heavy: B1 heavy with Q269A
light: not shown
notes: IgG1 type
B3: IL6R-2B171/IL6R-L (antibody, human IgG1, kappa)
heavy: B1 heavy with Q269S, V325L
light: not shown
notes: IgG1 type
B4: IL6R-BP078/IL6R-L (antibody, human IgG1, kappa)
heavy: B1 heavy with Q269S, A332M
light: not shown
notes: IgG1 type
B5: IL6R-BP103/IL6R-L (antibody, human IgG1, kappa)
heavy: B1 heavy with Q269V
light: not shown
notes: IgG1 type
B6: IL6R-BP183/IL6R-L (antibody, human IgG1, kappa)
heavy: B1 heavy with E235D, L236Y, Q269S, P273G, K328A, A332K
light: not shown
notes: copies: 2 + 2
B7: IL6R-BP213/IL6R-L (antibody, human IgG1, kappa)
heavy: B1 heavy with E235D, Q269S, H270D, P273G, A332R
light: not shown
notes: copies: 2 + 2
B8: IL6R-BP207/IL6R-L (antibody, human IgG1, kappa)
heavy: B1 heavy with E235D, Q269S, A332R
light: not shown
notes: copies: 2 + 2
B9: IL6R-BP205/IL6R-L (antibody, human IgG1, kappa)
heavy: B1 heavy with E235D, Q269S, P273G, Y298D, A332R
light: not shown
notes: copies: 2 + 2
B10: IL6R-BP190/IL6R-L (antibody, human IgG1, kappa)
heavy: B1 heavy with G239D, Q269S, H270D, P273G, A332K
light: not shown
notes: copies: 2 + 2
B11: IL6R-BP197/IL6R-L (antibody, human IgG1, kappa)
heavy: B1 heavy with E235D, L236Y, G239D, Q269S, H270D, P273G, Y298D, K328D, A332K
light: not shown
notes: copies: 2 + 2
B12: IL6R-BP199/IL6R-L (antibody, human IgG1, kappa)
heavy: B1 heavy with E235D, Q269S, K328D, A332R
light: not shown
notes: copies: 2 + 2
B13: IL6R-BP211/IL6R-L (antibody, human IgG1, kappa)
heavy: B1 heavy with E235D, Q269S, H270D, P273G, K328A, A332R
light: not shown
notes: copies: 2 + 2
B14: IL6R-BP196/IL6R-L (antibody, human IgG1, kappa)
heavy: B1 heavy with L236Y, Q269S, H270D, P273G, K328A, A332K
light: not shown
notes: copies: 2 + 2
B15: IL6R-BP204/IL6R-L (antibody, human IgG1, kappa)
heavy: B1 heavy with E235D, Q269S, P273G, K328A, A332R
light: not shown
notes: copies: 2 + 2
B16: IL6R-BP188/IL6R-L (antibody, human IgG1, kappa)
heavy: B1 heavy with E235D, G239D, Q269S, H270D, P273G, A332K
light: not shown
notes: copies: 2 + 2
B17: IL6R-BP210/IL6R-L (antibody, human IgG1, kappa)
heavy: B1 heavy with G239D, Q269S, H270D, P273G, A332R
light: not shown
notes: copies: 2 + 2
B18: IL6R-BP186/IL6R-L (antibody, human IgG1, kappa)
heavy: B1 heavy with E235D, L236Y, G239D, Q269S, P273G, Y298D, K328A, A332K
light: not shown
notes: copies: 2 + 2
B19: IL6R-BP488/IL6R-L (antibody, human IgG1, kappa)
heavy: B1 heavy with E235D, G239D, V266I, Q269A, H270E, P273G, Y298D, A332R
light: not shown
notes: copies: 2 + 2
B20: IL6R-BP551/IL6R-L (antibody, human IgG1, kappa)
heavy: B1 heavy with G239D, V266I, Q269S, H270E, P273G, E274D, Y298D, A332R
light: not shown
notes: copies: 2 + 2
B21: IL6R-BP540/IL6R-L (antibody, human IgG1, kappa)
heavy: B1 heavy with G239D, V266I, Q269S, H270E, P273G, E274P, Y298D, A332R
light: not shown
notes: copies: 2 + 2
B22: IL6R-BP538/IL6R-L (antibody, human IgG1, kappa)
heavy: B1 heavy with G239D, V266I, Q269S, H270E, P273G, A332R
light: not shown
notes: copies: 2 + 2
B23: IL6R-BP556/IL6R-L (antibody, human IgG1, kappa)
heavy: B1 heavy with G239D, V266I, Q269G, H270E, P273G, Y298D, A332R
light: not shown
notes: copies: 2 + 2
B24: IL6R-BP550/IL6R-L (antibody, human IgG1, kappa)
heavy: B1 heavy with G239D, V266I, Q269G, H270E, P273G, E274D, Y298D, A332R
light: not shown
notes: copies: 2 + 2
B25: IL6R-BP539/IL6R-L (antibody, human IgG1, kappa)
heavy: B1 heavy with G239D, V266I, Q269G, H270E, P273G, E274P, Y298D, A332R
light: not shown
notes: copies: 2 + 2

Molecular target: T1, human FcγRIIb extracellular domain with C-terminal His tag (human, UniProt P31994 43-217)
T1 construct: extracellular domain; also called FcgRIIb
T1 sequence (looked up): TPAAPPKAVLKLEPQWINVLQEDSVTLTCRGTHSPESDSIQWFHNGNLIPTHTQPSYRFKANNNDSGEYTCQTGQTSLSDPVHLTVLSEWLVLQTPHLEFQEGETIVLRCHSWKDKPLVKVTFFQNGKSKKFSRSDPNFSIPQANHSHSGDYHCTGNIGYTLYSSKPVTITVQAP
Test: SPR (Biacore), antibody captured, FcγR as analyte

Row | Binder | KD(IIb) of parent polypeptide/KD(IIb) of altered polypeptide [fold vs IL6R-B3/IL6R-L] | Kd [nM]
1 | B1 | 3.4 | 900
2 | B2 | 2.9 | –
3 | B3 | 2.9 | –
4 | B4 | 2.8 | –
5 | B5 | 2.5 | –

Molecular target: T2, human FcγRIIa type R extracellular domain with C-terminal His tag (human, UniProt P12318 34-217)
T2 construct: extracellular domain; also called FcγRIIaR; FcgRIIaR
T2 sequence (looked up): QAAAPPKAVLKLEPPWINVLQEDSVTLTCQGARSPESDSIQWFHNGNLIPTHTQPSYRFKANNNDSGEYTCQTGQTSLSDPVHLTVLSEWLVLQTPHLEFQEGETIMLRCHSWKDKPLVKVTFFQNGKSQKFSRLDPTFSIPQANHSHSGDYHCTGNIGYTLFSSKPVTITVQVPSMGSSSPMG
Test: SPR (Biacore), antibody captured, FcγR as analyte

Row | Binder | Kd [nM]
6 | B1 | 8400
7 | B2 | 7800
8 | B3 | 16000
9 | B4 | 15000
10 | B5 | 11000

Molecular target: T3, human FcγRIIIa type V (allotype V158) extracellular domain with C-terminal His tag (human, UniProt P08637 17-208)
T3 construct: extracellular domain; also called FcγRIIIaV; FcγRIIIa V type; not shown: His tag at the C terminus
Test: SPR (Biacore), antibody captured, FcγR analyte

T3 sequence (P08637 17-208 F176V): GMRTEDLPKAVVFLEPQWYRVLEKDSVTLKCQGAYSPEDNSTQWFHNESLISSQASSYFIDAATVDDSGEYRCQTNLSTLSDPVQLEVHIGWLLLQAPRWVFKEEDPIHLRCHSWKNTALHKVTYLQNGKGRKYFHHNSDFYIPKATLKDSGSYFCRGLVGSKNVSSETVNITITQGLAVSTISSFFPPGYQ

Row | Binder | Kd [nM]
11 | B6 | 56000
12 | B7 | 63000
13 | B8 | 65000
14 | B9 | 68000
15 | B10 | 45000
16 | B11 | 33000
17 | B12 | 61000
18 | B13 | 73000
19 | B14 | 51000

Molecular target: T4, human FcγRIIa type R (allotype R131) extracellular domain with C-terminal His tag (human, UniProt P12318 34-217)
T4 construct: extracellular domain; also called FcγRIIaR; FcγRIIa R type; not shown: His tag at the C terminus
T4 sequence (looked up): T2 sequence (looked up)
Test: SPR (Biacore), antibody captured, FcγR analyte

Row | Binder | Kd [nM]
20 | B6 | 2600
21 | B15 | 4500
22 | B16 | 1000
23 | B17 | 1000
24 | B18 | 960
25 | B11 | 980
26 | B13 | 4100
27 | B14 | 3000

Molecular target: T5, human FcγRIIb extracellular domain with C-terminal His tag (human, UniProt P31994 43-217)
T5 construct: extracellular domain
T5 sequence (looked up): T1 sequence (looked up)
Test: SPR (Biacore), ratio of KDs

Row | Binder | KD(IIaH)/KD(IIb) | KD(IIaR)/KD(IIb)
28 | B19 | 865 | 40.1
29 | B20 | 436 | 38.1
30 | B21 | 803 | 36.6
31 | B22 | 568 | 38.6
32 | B23 | 692 | 35.4
33 | B24 | 655 | 44.2
34 | B25 | 667 | 39

Molecular target: T6, human FcγRIIa type R extracellular domain with C-terminal His tag (human, UniProt P12318 34-217)
T6 construct: extracellular domain; also called FcγRIIaR; FcγRIIa(R)
T6 sequence (looked up): T2 sequence (looked up)
Test: SPR (Biacore), parent IL6R-B3/IL6R-L

Row | Binder | KD(IIaR) parent/KD(IIaR) altered polypeptide
35 | B19 | 14.8
36 | B20 | 4.5
37 | B21 | 5.2
38 | B22 | 5.4
39 | B23 | 3.7
40 | B24 | 3.3
41 | B25 | 3.4

Molecular target: T5, human FcγRIIb extracellular domain with …
Test: SPR (Biacore), parent IL6R-B3/IL6R-L

Row | Binder | KD(IIb) parent/KD(IIb) altered polypeptide
42 | B19 | 1680
43 | B20 | 482
44 | B21 | 541
45 | B22 | 587
46 | B23 | 370
47 | B24 | 406
48 | B25 | 369

Molecular target: T6, human FcγRIIa type R extracellular …
Test: SPR (Biacore)

Row | Binder | Kd [nM]
49 | B19 | 74
50 | B20 | 250
51 | B21 | 210
52 | B22 | 200
53 | B23 | 300
54 | B24 | 340
55 | B25 | 330

Molecular target: T7, human FcγRIIa type H extracellular domain with C-terminal His tag (human, UniProt P12318 34-217)
T7 construct: extracellular domain; also called FcγRIIaH; FcγRIIa(H)
T7 sequence (looked up): T2 sequence (looked up) with R134H
Test: SPR (Biacore)

Row | Binder | Kd [nM]
56 | B19 | 1600
57 | B20 | 2800
58 | B21 | 4600
59 | B22 | 3000
60 | B23 | 5800
61 | B24 | 5000
62 | B25 | 5600

Molecular target: T5, human FcγRIIb extracellular domain with …
Test: SPR (Biacore)

Row | Binder | Kd [nM]
63 | B19 | 1.9
64 | B20 | 6.4
65 | B21 | 5.7
66 | B22 | 5.3
67 | B23 | 8.4
68 | B24 | 7.6
69 | B25 | 8.4

Molecular target: T8, human FcγRIa extracellular domain with C-terminal His tag (human, UniProt P12314 16-292)
T8 construct: extracellular domain
Test: SPR (Biacore)

T8 sequence (P12314 16-292): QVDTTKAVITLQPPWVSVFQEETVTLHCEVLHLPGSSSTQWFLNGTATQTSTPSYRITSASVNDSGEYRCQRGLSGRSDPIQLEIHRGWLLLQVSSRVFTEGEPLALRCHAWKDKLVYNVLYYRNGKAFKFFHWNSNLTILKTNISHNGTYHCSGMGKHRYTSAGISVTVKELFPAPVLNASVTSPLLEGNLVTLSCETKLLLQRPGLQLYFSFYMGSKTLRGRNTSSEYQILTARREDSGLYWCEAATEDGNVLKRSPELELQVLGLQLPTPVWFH

Row | Binder | Kd [nM]
70 | B19 | 2.2
71 | B20 | 32
72 | B21 | 96
73 | B22 | 55
74 | B23 | 43
75 | B24 | 25
76 | B25 | 64
